Data from patent US20150064184A1 (ARMAGEN TECHNOLOGIES, published 2015).

Assays:
[1] = target: T1, human insulin receptor extracellular domain (HIR ECD) (human, UniProt P06213 28-956, limits assumed); test: ELISA, HIR ECD plated, detected with biotinylated anti-human IgG
T1 construct: extracellular domain; The ECD was plated on 96-well dishes for the ELISA

[2] = target: T1, human insulin receptor extracellular …; test: ELISA, HIR ECD plated (second experiment)
[3] = target: T1, human insulin receptor extracellular …; test: ELISA, HIR ECD plated; normalised for a MW of 150 kDa
Experimental: (§1) The affinity of the fusion protein for the HIR extracellular domain (ECD) was determined with an ELISA. CHO cells permanently transfected with the HIR ECD were grown in serum free media (SFM), and the HIR ECD was purified with a wheat germ agglutinin affinity column, as previously described in Coloma et al. (2000) Pharm Res, 17:266-274. The HIR ECD was plated on Nunc-Maxisorb 96 well dishes and the binding of the HIR Ab, or the HIR Ab-ASA fusion protein, to the HIR ECD was detected with a biotinylated goat anti-human IgG (H+L) secondary antibody, followed by avidin and biotinylated peroxidase (Vector Labs, Burlingame, Calif.). […] The MW of the HIR Ab is 150 kDa, and the MW of the HIR Ab-ASA fusion protein is 288 kDa.

[4] = target: T1, human insulin receptor extracellular …; test: ELISA, HIR ECD plated on Nunc-Maxisorb wells, detected with biotinylated anti-human IgG
Experimental: as §1

[5] = target: T1, human insulin receptor extracellular …; test: ELISA, HIR ECD plated; normalised for a MW of 288 kDa
Experimental: as §1

EC50 [1] [nM]	EC50 [2] [nM]	EC50 [3] [nM]	EC50 [4] [µg/mL]	EC50 [5] [nM]	Binder
0.77	0.25	0.23	0.035		chimeric HIRMAb (chimeric monoclonal antibody against the human insulin receptor) (antibody, human IgG1, kappa, MW 150 kDa; also called HIR Ab; chimeric HIR Ab) heavy: not shown light: DIQMTQSPSSLSASLGERVSLTCRASQDIGGNLYWLQQGPDGTIKRLIYATSSLDSGVPKRFSGSRSGSDYSLTISSLESEDFVDYYCLQYSSSPWTFGGGTKMEIKRTVAAPSVFIFPPSDEQLKSGTASVVCLLNNFYPREAKVQWKVDNALQSGNSQESVTEQDSKDSTYSLSSTLTLSKADYEKHKVYACEVTHQGLSSPVTKSFNRGEC
0.81					HIR Ab-GUSB fusion protein (human GUSB fused to the carboxyl terminus of the HIR Ab heavy chain) (antibody, human IgG1, kappa, range 23-633; also called HIRMAb-GUSB fusion protein; pCD-HC-GUSB plus pCD-LC product) heavy: not shown light: DIQMTQSPSSLSASLGERVSLTCRASQDIGGNLYWLQQGPDGTIKRLIYATSSLDSGVPKRFSGSRSGSDYSLTISSLESEDFVDYYCLQYSSSPWTFGGGTKMEIKRTVAAPSVFIFPPSDEQLKSGTASVVCLLNNFYPREAKVQWKVDNALQSGNSQESVTEQDSKDSTYSLSSTLTLSKADYEKHKVYACEVTHQGLSSPVTKSFNRGEC
			0.106	0.34	HIRMAb-ASA fusion protein (HIR Ab fused at the carboxyl terminus of each heavy chain to mature human arylsulfatase A) (antibody, human IgG1, kappa, Cys-515 of SEQ ID NO 10 undergoes post-translational conversion to formylglycine (inferred by the filing from retained enzyme activity), Antibody-enzyme fusion made in CHO cells and purified on protein A. Hetero-tetramer with an estimated MW of 288 kDa; also called HIR Ab-ASA fusion protein; HIR Ab-ASA fusion antibody) heavy: not shown light: DIQMTQSPSSLSASLGERVSLTCRASQDIGGNLYWLQQGPDGTIKRLIYATSSLDSGVPKRFSGSRSGSDYSLTISSLESEDFVDYYCLQYSSSPWTFGGGTKMEIKRTVAAPSVFIFPPSDEQLKSGTASVVCLLNNFYPREAKVQWKVDNALQSGNSQESVTEQDSKDSTYSLSSTLTLSKADYEKHKVYACEVTHQGLSSPVTKSFNRGEC
